{
  "source": "paper PMC12769810",
  "about": "“Structure and substrate promiscuity of Campylobacter jejuni periplasmic nitrate reductase (Nap) and phylogenetic analysis of Nap homologs” (The Journal of Biological Chemistry, 2025)",
  "key": {"CjNapA (WT NapA) [1]": {"molecular_target": "T1, CjNapA (WT NapA) (Campylobacter jejuni, UniProt Q9PPD9)", "T1 construct": "recombinant catalytic subunit NapA without NapB; native N-terminal TAT signal peptide replaced by that of E. coli; 889 residues modelled by cryo-EM", "T1 sequence (Q9PPD9 31-924)": "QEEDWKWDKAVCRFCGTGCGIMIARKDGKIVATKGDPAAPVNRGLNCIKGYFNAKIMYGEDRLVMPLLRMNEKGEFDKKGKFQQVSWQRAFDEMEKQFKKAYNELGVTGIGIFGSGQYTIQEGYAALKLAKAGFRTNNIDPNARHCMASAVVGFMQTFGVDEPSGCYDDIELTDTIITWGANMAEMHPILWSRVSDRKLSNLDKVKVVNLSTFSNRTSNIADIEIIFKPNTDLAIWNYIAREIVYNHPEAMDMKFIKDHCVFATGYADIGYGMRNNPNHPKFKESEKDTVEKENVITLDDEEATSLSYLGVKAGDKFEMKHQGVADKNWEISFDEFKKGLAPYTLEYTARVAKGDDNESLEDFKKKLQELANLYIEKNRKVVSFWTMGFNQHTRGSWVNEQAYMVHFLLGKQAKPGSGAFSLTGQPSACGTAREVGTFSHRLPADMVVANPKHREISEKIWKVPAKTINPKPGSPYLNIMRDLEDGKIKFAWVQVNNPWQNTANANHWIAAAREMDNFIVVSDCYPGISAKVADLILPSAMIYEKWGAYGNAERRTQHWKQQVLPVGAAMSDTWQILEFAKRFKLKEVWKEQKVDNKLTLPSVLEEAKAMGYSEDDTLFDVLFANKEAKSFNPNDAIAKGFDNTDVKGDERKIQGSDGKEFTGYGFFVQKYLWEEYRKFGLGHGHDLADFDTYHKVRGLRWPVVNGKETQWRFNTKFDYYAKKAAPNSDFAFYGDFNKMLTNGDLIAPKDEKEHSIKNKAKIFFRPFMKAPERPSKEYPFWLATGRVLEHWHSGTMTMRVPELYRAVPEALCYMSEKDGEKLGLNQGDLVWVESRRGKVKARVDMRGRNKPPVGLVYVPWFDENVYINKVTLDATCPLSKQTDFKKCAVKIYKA", "test": "cryo-EM structure, […] Å", "format": "binding", "details": "coordinated by Cys42, Cys45, Cys49, Cys77"}, "[O-][Cl+3]([O-])([O-])O": {"system": "[O-][Cl+3]([O-])([O-])O", "test": "purified protein", "format": "biochemical, Campylobacter jejuni", "details": "reduced methyl viologen, 50 mM HEPES pH 7, room temperature, argon glove box, 67 nM enzyme, corrected for background oxidation"}, "[O-][Cl+2]([O-])O": {"system": "[O-][Cl+2]([O-])O", "test": "purified protein", "format": "biochemical, Campylobacter jejuni", "details": "reduced methyl viologen, 50 mM HEPES pH 7, room temperature, argon glove box, 67 nM enzyme"}, "CjNapA (WT NapA) [2]": {"molecular_target": "T1, CjNapA (WT NapA)", "test": "steady-state nitrate reductase assay, reduced methyl viologen oxidation, double-reciprocal plot", "format": "biochemical"}},
  "data": [
    {"compound": "[S]12[Fe]3[S]4[Fe]1[S]1[Fe]2[S]3[Fe]41", "note": "[[4Fe4S] cluster]", "values": [
      {"measurement": "cryo-EM structure, 3.04 Å", "setting": "CjNapA (WT NapA) [1]", "value": "NapA has a [4Fe4S] cluster, which is located closer to the surface of the protein"}
    ]},
    {"compound": "CjNapA (WT NapA) (Campylobacter jejuni subsp. jejuni NCTC 11168 = ATCC 700819)", "values": [
      {"measurement": "Km", "setting": "[O-][Cl+3]([O-])([O-])O", "value": "22.907 ± 3.132", "unit": "mM"},
      {"measurement": "kcat", "setting": "[O-][Cl+3]([O-])([O-])O", "value": "2.52 ± 0.07", "unit": "s⁻¹"},
      {"measurement": "kcat/Km", "setting": "[O-][Cl+3]([O-])([O-])O", "value": 100, "unit": "M⁻¹ s⁻¹"},
      {"measurement": "Km", "setting": "[O-][Cl+2]([O-])O", "value": "0.968 ± 0.093", "unit": "mM"},
      {"measurement": "kcat", "setting": "[O-][Cl+2]([O-])O", "value": "2.13 ± 0.04", "unit": "s⁻¹"},
      {"measurement": "kcat/Km", "setting": "[O-][Cl+2]([O-])O", "value": 2200, "unit": "M⁻¹ s⁻¹"}
    ]},
    {"compound": "[O-][Cl+3]([O-])([O-])O", "note": "[perchlorate]", "values": [
      {"measurement": "Ki", "setting": "CjNapA (WT NapA) [2]", "value": "4.7 ± 0.3", "unit": "mM"}
    ]}
  ]
}
